Test results reported in patent US20200283847, “TEST KIT FOR DETECTING CONCENTRATION OF CARDIOVASCULAR DISEASE-RELATED BIOMARKER AND CONCENTRATION DETECTION METHOD FOR DETECTING CONCENTRATION OF CARDIOVASCULAR DISEASE-RELATED BIOMARKER” (National Tsing Hua University, published 2020).

What was measured:
[1] = target: T1, hcTnI (human cardiac troponin I) (Homo sapiens, UniProt P19429 P19429:2-210); assay: SPR
Experimental: (§1) Firstly, the binding affinities of the first aptamer, the second aptamer, and the third aptamer contained in the test kit for detecting the concentration of the cardiovascular disease-related biomarker of the present disclosure are tested. The surface plasmon resonance (SPR) method is used in the binding affinity test to measure the signal changes and calculate the dissociation constant (Kd) of the first aptamer, the second aptamer and the third aptamer against their respective target proteins. Alternatively, a primary antibody against the target protein and secondary antibody conjugated with an enzyme is used in test. The binding affinities of the first aptamer, the second aptamer, and the third aptamer against their respective target proteins are measured by detecting the intensities of luminescence.

[2] = target: T2, NT-proBNP (N-terminal pro-brain natriuretic peptide) (UniProt P16860 P16860:27-102); assay: pulldown; protein-coated magnetic beads, qPCR; also no dose-dependent signal in FIG. 7B
Experimental: (§2) The magnetic beads coated with the target protein or the non-target protein are mixed with the first aptamer, the second aptamer or the third aptamer, and then the magnetic beads are captured by the magnet and the aptamers which are not bound to the magnetic beads are washed away. Then, the magnetic beads are heated to denature the proteins on the magnetic beads for releasing the bound aptamers into the supernatant. Quantitative PCR is performed using the supernatant to analyze the number of residual aptamers, and compared with each other to test the specificity of the first aptamer, the second aptamer, and the third aptamer. In theory, a specific aptamer should only bind to its corresponding target protein, but not to a non-corresponding protein. The aptamers tested in the example are the first aptamer N20a, the second aptamer Tn2, and the third aptamer F03s.
(§3) Please refer to FIGS. 5A, 5B, 5C and 5D, which show specificity analysis results of a test kit for detecting the concentration of the cardiovascular disease-related biomarker according to one embodiment of the present disclosure. […] TT represents the hcTnI with the second aptamer Tn2, NT represents the NT-proBNP protein with the second aptamer Tn2, FT represents the fibrinogen protein with the second aptamer Tn2, and BT represents the BSA protein with the second aptamer Tn2. FF represents the fibrinogen protein with the third aptamer F03s, NF represents the NT-proBNP with the third aptamer F03s, TF represents the hcTnI with the third aptamer F03s, and BF represents the BSA protein with the third aptamer F03s.

[3] = target: T3, BSA (bovine serum albumin) (Bos taurus, UniProt P02769 P02769:25-607); assay: as above
Experimental: as §2, §3

fibrinogen [4] = target: T4, fibrinogen (UniProt P02671-2;P02675;P02679 P02671-2:20-644,P02675:31-491,P02679:27-453); assay: as above; details: chain copies: 2
Experimental: as §2, §3

[5] = target: T2, NT-proBNP (N-terminal pro-brain …); assay: pulldown; protein-coated magnetic beads, qPCR
Text: as §2, with “In the specificity test, the single-stranded DNA of the first aptamer, the second aptamer and the third aptamer are synthesized first. The magnetic” for “The magnetic”
as §3

[6] = target: T3, BSA (bovine serum albumin); assay: pulldown; protein-coated magnetic beads, qPCR
Text: as §2, with “In the specificity test, the single-stranded DNA of the first aptamer, the second aptamer and the third aptamer are synthesized first. The magnetic” for “The magnetic”
as §3

[7] = target: T1, hcTnI (human cardiac troponin I); assay: pulldown; protein-coated magnetic beads, qPCR
Text: as §2, with “In the specificity test, the single-stranded DNA of the first aptamer, the second aptamer and the third aptamer are synthesized first. The magnetic” for “The magnetic”
as §3

fibrinogen [8] = target: T4, fibrinogen; assay: SPR; details: chain copies: 2
Experimental: as §1

[9] = target: T1, hcTnI (human cardiac troponin I); assay: antibody luminescence assay
Experimental: as §1
The curves of binding affinity curve are plotted with luminescence intensity of the first aptamer, the second aptamer or the third aptamer with its target protein. The first aptamer, the second aptamer or the third aptamer is bound to the target protein. And then the aptamer-protein complex is incubated with antibodies against target proteins and further with secondary antibodies conjugated with the enzyme, which could produce luminescence when providing substrates. The signal of luminescence of the first aptamer, the second aptamer or the third aptamer is detected. […]

fibrinogen [10] = target: T4, fibrinogen; assay: pulldown; protein-coated magnetic beads, qPCR; details: chain copies: 2
Text: as §2, with “In the specificity test, the single-stranded DNA of the first aptamer, the second aptamer and the third aptamer are synthesized first. The magnetic” for “The magnetic”
as §3

[11] = target: T2, NT-proBNP (N-terminal pro-brain …); assay: SPR
Experimental: as §1

T3 sequence (P02769 25-607, one chain of several): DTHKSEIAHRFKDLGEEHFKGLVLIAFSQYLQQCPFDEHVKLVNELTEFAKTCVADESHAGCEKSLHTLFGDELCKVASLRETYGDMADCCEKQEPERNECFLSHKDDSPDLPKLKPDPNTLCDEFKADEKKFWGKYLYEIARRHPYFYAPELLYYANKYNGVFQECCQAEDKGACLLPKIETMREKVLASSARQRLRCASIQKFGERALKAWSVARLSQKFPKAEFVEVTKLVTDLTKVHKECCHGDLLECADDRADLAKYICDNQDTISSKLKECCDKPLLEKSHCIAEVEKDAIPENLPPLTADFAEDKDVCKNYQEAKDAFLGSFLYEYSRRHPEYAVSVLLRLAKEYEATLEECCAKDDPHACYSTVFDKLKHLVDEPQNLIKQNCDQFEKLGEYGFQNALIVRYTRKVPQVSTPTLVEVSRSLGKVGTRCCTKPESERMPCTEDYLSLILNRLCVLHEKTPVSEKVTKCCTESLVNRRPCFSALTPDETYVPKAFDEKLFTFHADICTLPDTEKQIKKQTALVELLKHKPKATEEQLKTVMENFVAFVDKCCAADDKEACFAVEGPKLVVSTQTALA
T4 sequence (P02671 other isoform, or with tags, fused parts or gaps, chain 1 of 3): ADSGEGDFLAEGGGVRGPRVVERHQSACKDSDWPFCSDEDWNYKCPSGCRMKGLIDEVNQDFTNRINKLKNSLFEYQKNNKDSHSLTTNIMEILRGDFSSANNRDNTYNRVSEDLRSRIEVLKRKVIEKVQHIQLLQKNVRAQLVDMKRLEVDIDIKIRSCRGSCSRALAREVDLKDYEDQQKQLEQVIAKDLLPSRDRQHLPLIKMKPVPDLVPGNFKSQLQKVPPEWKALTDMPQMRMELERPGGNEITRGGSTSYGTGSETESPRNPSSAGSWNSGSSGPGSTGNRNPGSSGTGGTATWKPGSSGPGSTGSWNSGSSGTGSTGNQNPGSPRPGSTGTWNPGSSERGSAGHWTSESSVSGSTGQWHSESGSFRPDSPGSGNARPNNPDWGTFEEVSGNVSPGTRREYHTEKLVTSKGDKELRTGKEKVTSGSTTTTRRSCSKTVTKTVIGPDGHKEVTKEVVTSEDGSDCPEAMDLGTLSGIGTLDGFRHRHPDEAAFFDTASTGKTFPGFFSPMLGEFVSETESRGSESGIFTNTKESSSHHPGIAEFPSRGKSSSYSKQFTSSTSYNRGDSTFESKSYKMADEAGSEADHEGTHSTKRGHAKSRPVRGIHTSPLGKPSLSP
T4 sequence (P02675 31-491, chain 2 of 3): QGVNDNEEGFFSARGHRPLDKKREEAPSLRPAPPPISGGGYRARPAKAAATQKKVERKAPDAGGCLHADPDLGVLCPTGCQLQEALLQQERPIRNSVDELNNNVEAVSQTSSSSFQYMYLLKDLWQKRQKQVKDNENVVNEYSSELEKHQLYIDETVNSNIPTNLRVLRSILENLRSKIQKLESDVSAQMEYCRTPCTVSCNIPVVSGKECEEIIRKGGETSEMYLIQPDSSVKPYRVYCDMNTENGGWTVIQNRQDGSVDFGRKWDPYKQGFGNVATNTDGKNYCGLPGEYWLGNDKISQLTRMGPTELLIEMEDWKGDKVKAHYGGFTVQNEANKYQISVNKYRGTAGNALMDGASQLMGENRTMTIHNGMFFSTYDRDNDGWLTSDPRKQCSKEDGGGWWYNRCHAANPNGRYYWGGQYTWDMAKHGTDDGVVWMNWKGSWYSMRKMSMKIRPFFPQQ
T4 sequence (P02679 27-453, chain 3 of 3): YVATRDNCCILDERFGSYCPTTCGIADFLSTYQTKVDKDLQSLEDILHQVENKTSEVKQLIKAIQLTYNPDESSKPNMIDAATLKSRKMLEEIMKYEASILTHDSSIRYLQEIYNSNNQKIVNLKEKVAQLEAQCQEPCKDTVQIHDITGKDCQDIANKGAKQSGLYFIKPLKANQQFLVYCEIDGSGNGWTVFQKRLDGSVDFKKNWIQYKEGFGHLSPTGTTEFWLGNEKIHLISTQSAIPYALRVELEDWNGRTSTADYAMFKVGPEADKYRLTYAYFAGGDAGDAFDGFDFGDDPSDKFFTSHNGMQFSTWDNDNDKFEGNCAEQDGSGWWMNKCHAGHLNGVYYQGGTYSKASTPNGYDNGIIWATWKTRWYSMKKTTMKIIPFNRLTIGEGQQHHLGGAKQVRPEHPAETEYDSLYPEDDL
T1 sequence (P19429 2-210, one chain of several): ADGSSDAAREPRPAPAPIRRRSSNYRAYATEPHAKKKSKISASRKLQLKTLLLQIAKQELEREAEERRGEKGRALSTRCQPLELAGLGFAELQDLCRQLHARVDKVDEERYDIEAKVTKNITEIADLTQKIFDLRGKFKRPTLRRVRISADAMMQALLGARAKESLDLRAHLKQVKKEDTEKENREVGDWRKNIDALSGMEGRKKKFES
T2 sequence (P16860 27-102, one chain of several): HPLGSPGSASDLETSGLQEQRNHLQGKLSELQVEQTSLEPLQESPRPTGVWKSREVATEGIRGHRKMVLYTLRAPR

B1: Tn2 (ssDNA)
DNA: GGCAGGAAGACAAACACCCAACCGAGGATGCAACGCTTGTTGTCATACTGTGATGTTGGTCTGTGGTGCTGT
[1]
  Kd: 19.8 nM
[2]
  binding result: no binding
[3]
  binding result: no binding
Fibrinogen [4]
  binding result: no binding

B2: F03s (ssDNA)
DNA: GGCAGGAAGACAAACAGCACCGGGTCCGAAACAGGCTTAGGTATGATCACAGCTCATGGTCTGTGGTGCTGT
[5]
  binding result: no binding
[6]
  binding result: no binding
[7]
  binding result: no binding
Fibrinogen [8]
  Kd: 4.4 nM

B3: cTni3 (ssDNA)
DNA: GGCAGGAAGACAAACAGGGGTACTTAGCATAGGAGTTTTGTTCTGTCGCACCTCGTTGGTCTGTGGTGCTGT
[9]
  Kd: 2.3 nM

B4: N20a (ssDNA)
DNA: GGCAGGAAGACAAACAGGTCGTAGTGGAAACTGTCCACCGTAGACCGGTTATCTAGTGGTCTGTGGTGCTGT
[6]
  binding result: no binding
[7]
  binding result: no binding
Fibrinogen [10]
  binding result: no binding
[11]
  Kd: 2.89 nM

B5: cTni6 (ssDNA)
DNA: GGCAGGAAGACAAACACGGGGCGGCCGAAACAATGCGTTTCGGACCCAGCAACTCGTGGTCTGTGGTGCTGT
[9]
  Kd: 49.4 nM
